From article PMC3764826, “Bpur, the Lyme Disease Spirochete's PUR Domain Protein”

Tests used:
Bpur [1] = target: T1, Bpur (Borrelia burgdorferi B31, UniProt O51076 1-122); experiment: EMSA; simultaneous with Bio-3; EMSA: 50 mM Tris pH 7.5, 25 mM KCl, 1 mM MgCl2, 100 nM DTT, 10% glycerol, 0.01% Tween 20, 0.1% PMSF; temperature not stated; RNA/ssDNA probes preheated at 56 C, RiboGuard with RNA; conditions: protein: recombinant; tags: His tag (pET101, nickel purification); chain copies: 2; label: 5' biotin
T1 sequence: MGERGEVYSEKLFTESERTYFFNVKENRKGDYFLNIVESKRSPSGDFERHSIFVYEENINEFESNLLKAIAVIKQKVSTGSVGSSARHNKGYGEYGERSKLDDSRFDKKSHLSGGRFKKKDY

Bpur [2] = target: T1, Bpur; experiment: EMSA; EMSA: 50 mM Tris pH 7.5, 25 mM KCl, 1 mM MgCl2, 100 nM DTT, 10% glycerol, 0.01% Tween 20, 0.1% PMSF; temperature not stated; RNA/ssDNA probes preheated at 56 C, RiboGuard with RNA; conditions: protein: recombinant, tags: His tag (pET101, nickel purification), chain copies: 2
Bpur [3] = target: T1, Bpur; experiment: EMSA; 50-500 nM Bpur; EMSA: 50 mM Tris pH 7.5, 25 mM KCl, 1 mM MgCl2, 100 nM DTT, 10% glycerol, 0.01% Tween 20, 0.1% PMSF; temperature not stated; RNA/ssDNA probes preheated at 56 C, RiboGuard with RNA; conditions: protein: recombinant; tags: His tag (pET101, nickel purification); chain copies: 2; label: 5' biotin
Bpur [4] = target: T1, Bpur; experiment: EMSA; simultaneous with Bio-2; EMSA: 50 mM Tris pH 7.5, 25 mM KCl, 1 mM MgCl2, 100 nM DTT, 10% glycerol, 0.01% Tween 20, 0.1% PMSF; temperature not stated; RNA/ssDNA probes preheated at 56 C, RiboGuard with RNA; conditions: protein: recombinant; tags: His tag (pET101, nickel purification); chain copies: 2; label: 5' biotin
Bpur [5] = target: T1, Bpur; experiment: competition; 100-fold excess vs Bio-1; EMSA: 50 mM Tris pH 7.5, 25 mM KCl, 1 mM MgCl2, 100 nM DTT, 10% glycerol, 0.01% Tween 20, 0.1% PMSF; temperature not stated; RNA/ssDNA probes preheated at 56 C, RiboGuard with RNA; conditions: protein: recombinant; tags: His tag (pET101, nickel purification); chain copies: 2

B1: Bio-2 (dsDNA)
DNA 1: TAAAATTACATTTGCGTTTTGTTAAAATGTAACAGCTGAATGTAAC
DNA 2: GTTACATTCAGCTGTTACATTTTAACAAAACGCAAATGTAATTTTA
Question: Does B1 bind (Bpur [1])?
Answer: Result: no binding

B2: Bio-dsDNA (dsDNA)
DNA 1: AATGGAGAGATTTTGGGGAGTTGTTTAAAATTACATTTGCGTTTTGTTAAAATG
DNA 2: CATTTTAACAAAACGCAAATGTAATTTTAAACAACTCCCCAAAATCTCTCCATT
Question: With B2 as the binder, how does the Kd (Bpur [2]; label: 5' biotin (one strand), blunt) read?
Answer: The Kd was 130 nM.

B3: Bio-sense-ssDNA (ssDNA)
DNA: AATGGAGAGATTTTGGGGAGTTGTTTAAAATTACATTTGCGTTTTGTTAAAATG
Question: With B3 as the binder, how does the Kd (Bpur [2]; label: 5' biotin) read?
Answer: Its Kd is 390 nM.

B4: Bio-1 (dsDNA)
DNA 1: GAGTAGTGCATTTGCAATGGAGAGATTTTGGGGAGTTGTTTAAAATTACATTTGCGTTTTGTTAAAATGTAACAGCTGAATGTAACAAAATTATATATTTAAATCTTGAAATA
DNA 2: TATTTCAAGATTTAAATATATAATTTTGTTACATTCAGCTGTTACATTTTAACAAAACGCAAATGTAATTTTAAACAACTCCCCAAAATCTCTCCATTGCAAATGCACTACTC
Question: Does B4 bind (Bpur [3])?
Answer: Result: binds

B5: Bio-3 (dsDNA)
DNA 1: GGAGAGATTTTGGGGAGTTGTTTAAAATTACATTTGCGTTTTGTTAAAATGTAAC
DNA 2: GTTACATTTTAACAAAACGCAAATGTAATTTTAAACAACTCCCCAAAATCTCTCC
Question: Does B5 bind (Bpur [4])?
Answer: Result: binds

B6: Bio-sense-RNA (ssRNA)
RNA: AAUGGAGAGAUUUUGGGGAGUUGUUUAAAAUUACAUUUGCGUUUUGUUAAAAUG
Question: How did the Kd (Bpur [2]; label: 5' biotin) turn out when B6 was run?
Answer: The Kd was 13 nM.

B7: competitor C (dsDNA)
DNA 1: GTAGTGCATTTGCAATGGAGAGATTTTGGGGAGTTGTTTAAAATTAC
DNA 2: GTAATTTTAAACAACTCCCCAAAATCTCTCCATTGCAAATGCACTAC
Question: Does B7 bind (Bpur [5])?
Answer: Result: binds
